Target: TRAF6 (human) (UniProt Q9Y4K3)
Experiment: cell-based or functional assay

Chain of UniProt Q9Y4K3 (Q9Y4K3 whole entry): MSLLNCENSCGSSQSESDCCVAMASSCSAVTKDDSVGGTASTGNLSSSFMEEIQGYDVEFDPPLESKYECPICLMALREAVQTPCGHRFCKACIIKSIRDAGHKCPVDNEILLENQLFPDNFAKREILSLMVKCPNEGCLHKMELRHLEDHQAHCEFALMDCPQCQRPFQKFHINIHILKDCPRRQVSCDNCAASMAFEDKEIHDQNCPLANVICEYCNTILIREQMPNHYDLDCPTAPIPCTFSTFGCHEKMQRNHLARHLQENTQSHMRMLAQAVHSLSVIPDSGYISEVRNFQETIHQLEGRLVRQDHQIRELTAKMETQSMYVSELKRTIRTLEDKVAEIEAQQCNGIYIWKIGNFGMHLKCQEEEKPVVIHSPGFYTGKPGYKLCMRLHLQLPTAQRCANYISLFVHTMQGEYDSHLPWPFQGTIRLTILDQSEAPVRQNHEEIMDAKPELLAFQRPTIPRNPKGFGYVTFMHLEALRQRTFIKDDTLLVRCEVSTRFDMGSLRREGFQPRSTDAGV

activity of MALT1 detected by biotinylated MALT1 activity-based probe (bio-MALT1-ABP) pulldown, ratio of active to total MALT1, resting Jurkat T cells | Substance
50 fold | human MALT1A E316A/E806A (from UniProt Q9UDY8 1-824) (enzyme)
5 fold | human MALT1B E795A (from UniProt Q9UDY8 2-824) (enzyme)

— patent US20240238419A1
